Assay results as given in the supplement of paper PMC12783771.
± gives the standard deviation of the averaged measurements.

B1: library; a variant is named by its letters at X, in order (parent)
chain: MNIQIGELAKRTACPVVTIRFYEQEGLLPPPGRSRGNFRLYGEEHVERLQFIRHCRSLDMPLSXVRTLLSYRKRPDQDCGEVXMLLDEHXRQVESRIGALLELXHXLVELREACSGARPAQSCGILQGLSDCVCDTRGTTAHXSD

How the values were obtained:
[1] = variants of: B1; assay: sfGFP reporter fluorescence (15 h) (µM FITC); higher = higher leak; settings: library round: Round 3b; ligand: none
Description: (§1)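 Cell-free biosensing: 1 µL Echo-assembled CFE reactions with linear PbrR variant templates (5 nM) and pPbrR-sfGFP reporter, with 1 µM Pb, 30 µM Zn or no ligand; endpoint sfGFP fluorescence after 15 h at 30 °C calibrated as µM FITC. Round 3b rational combinatorial PbrR mutants; 3 biological replicates.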

[2] = variants of: B1; assay: sfGFP reporter fluorescence (15 h) (µM FITC); higher = stronger transcriptional activation; settings: library round: Round 3b
Description: as §1

Variant | sfGFP reporter fluorescence [1] | sfGFP reporter fluorescence ([2]; ligand: 1 µM Pb) | sfGFP reporter fluorescence ([2]; ligand: 30 µM Zn)
KFATHP | 0.0523 ± 0.0059 | 0.476 ± 0.041 | 0.112 ± 0.011
KFATHT | 0.0512 ± 0.0033 | 0.558 ± 0.011 | 0.137 ± 0.013
KFATHR | 0.0517 ± 0.0024 | 0.705 ± 0.055 | 0.171 ± 0.012
KFIVHT | 0.0536 ± 0.0065 | 0.7 ± 0.038 | 0.365 ± 0.038
DFATAP | 0.0454 ± 0.0046 | 0.048 ± 0.0038 | 0.0454 ± 0.0051
DFATAT | 0.0428 ± 0.0034 | 0.0475 ± 0.0011 | 0.0455 ± 0.0051
DFATAR | 0.0431 ± 0.00051 | 0.05286 ± 0.00019 | 0.0448 ± 0.0015
KFIKAT | 0.0418 ± 0.0013 | 0.169 ± 0.015 | 0.0513 ± 0.0024
DFAVER | 0.0402 ± 0.0024 | 0.0506 ± 0.0017 | 0.0474 ± 0.0015
DFAVEP | 0.0418 ± 0.0019 | 0.0531 ± 0.0031 | 0.0466 ± 0.0044
DFAVET | 0.0447 ± 0.00067 | 0.051 ± 0.0039 | 0.0469 ± 0.00097
DFATET | 0.0435 ± 0.0019 | 0.0466 ± 0.0012 | 0.0451 ± 0.001
DFATEP | 0.041 ± 0.0024 | 0.0428 ± 0.0007 | 0.0444 ± 0.0036
DFATER | 0.044 ± 0.0013 | 0.0474 ± 0.0018 | 0.0469 ± 0.0034
DFAKET | 0.037 ± 0.0032 | 0.0413 ± 0.00089 | 0.0436 ± 0.0024
DFAKER | 0.044 ± 0.0022 | 0.0459 ± 0.002 | 0.0423 ± 0.00089
KFAKEP | 0.0525 ± 0.0023 | 0.414 ± 0.015 | 0.0724 ± 0.0068
KFAKET | 0.0549 ± 0.0049 | 0.413 ± 0.019 | 0.0675 ± 0.0044
KFAKER | 0.0536 ± 0.0034 | 0.438 ± 0.026 | 0.0631 ± 0.0086
KFITAP | 0.0485 ± 0.0052 | 0.302 ± 0.022 | 0.0642 ± 0.0032
KFITAR | 0.0479 ± 0.003 | 0.394 ± 0.028 | 0.0776 ± 0.0024
KFITAT | 0.0473 ± 0.0032 | 0.335 ± 0.012 | 0.0678 ± 0.0076
